Experiment [1] deals with T1, Recombinant CHIKV p62-E1 (Chikungunya virus).
T1 construct: also called soluble CHIKV p62-E1; monomeric E1 protein
Briefly: SPR (Biacore T100), IgG captured on anti-human IgG, p62-E1 injected.

Experiment [2] deals with T2, Recombinant CHIKV E2 ectodomain protein (corresponding to the CHIKV-LR2006 strain) (Chikungunya virus strain LR2006).
T2 construct: extracellular domain; also called CHIKV-LR2006 E2 ectodomain; purified E2 protein
The experiment is described as follows: ELISA on coated E2 ectodomain, mAb at 10 µg/mL.

B1: human mAb 5O14 (antibody, V domains shown)
VH: QVQLVQSGGRVVQAGRSLRLSCAASGFTFSMYGVHWVRQAPGKGLEWVAVIWNDGSKEYYGDSVKGRFTISRDNSRNTLYLQMNSLRVDDTAVYFCARDGIPDPERGDYGGLDYWGQGTLVTVSS
VL: QTVVTQFPSSPFASVGDGVTITCRARQSISSYVNWYQQKPGKAPKLLIYATSSLQSGVPSRFSGSGYGTDFTLTISGLQPEDFATYYCQQSYSFPRTFGQGTKVEIK
Turning to B1, in experiment [1], the Kd came out at 1.15 nM, the koff was 0.000911 s⁻¹, the kon came out at 790000 M⁻¹ s⁻¹ and the t1/2 stood at 13 min. The OD450 in experiment [2] was above 1 od.

B2: human mAb 2C2 (antibody, V domains shown)
VH: QVQLVQSGGGLVQPGRSLTLSCAASGFTFDVYAMHWVRQAPGKGLEWVAGISWNSGSVGYADSMKGRFTISRDNAKNSLYLQINSLRAEDTALYYCAKAFWFGELSGYGMDVWGQGTLVTVSS
VL: QAVVTQPPSASGFPGQSVTISCTGTSSDVGSYNYVSWYQQHPGKAPKLIIYAVTRRPSGVPERFSGSKSGNTASLTVSGLQAEDEADYYCTSYAGNNKDVFGTGTKVTVL
For B2, in experiment [1], the t1/2 came to 19 min.

B3: human mAb 4J21 (antibody, V domains shown)
VH: QVQLVQSGSELKKPGASVKVSCKASGYSFTSYSINWVRQAPGQGPEWMGWIDTNTGNPTYAQDFAGRFVFSLDTSVTTAYLQISSLKAGDTAVYYCATYYVDLWGSYRQDYYGMDVWGHGTLVTVSS
VL: QSVVTQPPSVSGTPGQGVTISCSGGSSNIGSNPVNWYQMVPGTAPKLLLYTNNQRPSGVPDRFSGSKSGTSASLAINGLQSEDEADYYCAVWDDSLSGRWVFGGGTKLTVL
For B3, the t1/2 in experiment [1] came out at 186 min. Moreover, in experiment [2], the OD450 was 0.5 to 0.99 od.

B4: human mAb 2B4 (antibody, V domains shown)
VH: QVQLVQSGSELKKPGASVKVSCKASGYSFTSYSINWVRQAPGQGPEWMGWIDTNTGNPTYAQDFAGRFVFSLDTSVTTAYLQISSLKAGDTAVYYCATYYVDLWGSYRQDYYGMDVWGH
VL: QSVLTQPPSASGTPGQRVTISCSGGSSNIGSNPVNWYQMVPGTAPKLLLYTNNQRPSGVPDRFSGSKSGTSASLAINGLQSEDEADYYCAVWDDSLSGRWVFGGGTKVTVL
Take B4: the OD450 in experiment [2] is 0.5 to 0.99 od.
